Here are results for one protein from US6368828 (US Dept. of Health and Human Services, dated 2002).

The data set deals with the molecule itself. The data set can be described thus: DSG crosslinking of whole cell lysates; immunoprecipitation and immunoblot with anti-Stat6 serum. As for the experimental part: Effect of Stat6c on endogenous Stat6 dimerization. To elucidate the molecular mechanism of Stat6c's potent transcriptional […], several possibilities were considered. Because endogenous Stat6 tyrosine phosphorylation is only partly diminished by Stat6c, inhibition of IL-4-induced endogenous Stat6 association with IL-4Rα or JAK activation appeared unlikely. […] Therefore, crosslinking studies were performed to investigate whether Stat6c might effect endogenous Stat6 dimerization. Whole cell lysates from IL-4-treated FDC-P2 cells or Stat6 and Stat6c transfectants were incubated with disuccinimidyl glutarate (DSG).

B1: endogenous murine Stat6 (other, UniProt P52633 1-837, looked up)
chain: MSLWGLISKMSPEKLQRLYVDFPQRLRHLLADWLESQPWEFLVGSDAFCYNMASALLSATVQRLQATAGEQGKGNSILPHISTLESIYQRDPLKLVATIRQILQGEKKAVIEEFRHLPGPFHRKQEELKFTTALGRLQHRVRETRLLRESLQQGAKTGQVSLQNLIDPPVNGPGPSEDLATMLQGTVGDLEATQALVLKRIQIWKRQQQLAGNGTPFEESLAGLQERCESLVEIYSQLQQEIGAASGELEPKTRASLISRLDEVLRTLVTSSFLVEKQPPQVLKTQTKFQAGVRFLLGLQFLGTSAKPPMVRADMVTEKQARELSLAQGPGTGVESTGEIMNNTVPLENSIPSNCCSALFKNLLLKKIKRCERKGTESVTEEKCAVLFSTSFTLGPNKLLIQLQALSLPLVVIVHGNQDNNAKATILWDNAFSEMDRVPFVVAERVPWEKMCETLNLKFMAEVGTSRGLLPEHFLFLAQKIFNDNSLSVEAFQHRCVSWSQFNKEILLGRGFTFWQWFDGVLDLTKRCLRSYWSDRLIIGFISKQYVTSLLLNEPDGTFLLRFSDSEIGGITIAHVIRGQDGSSQIENIQPFSAKDLSIRSLGDRIRDLAQLKNLYPKKPKDEAFRSHYKPEQMGKDGRGYVSTTIKMTVERDQPLPTPEPQMPAMVPPYDLGMAPDASMQLSSDMGYPPQSIHSFQSLEESMSVLPSFQEPHLQMPPNMSQITMPFDQPHPQGLLQCQSQEHAVSSPEPMLCSDVTMVEDSCLTQPVGGFPQGTWVSEDMYPPLMPPTEQDLTKLLLENQGEAGGSLGSQPLLQPSPYGQSGISLSHLDLRTNPSW
notes: Endogenous protein in FDC-P2 whole cell lysates; also called endogenous Stat6
In the case of B1, the binding result is “binds”.
